Source: patent US20140378374A1, “METHODS OF TREATMENT” (GlaxoSmithKline Intellectual Property (No.2) Limited, priority 2013, published 2014)
Read-outs that look alike come from different tables or passages of the source.

Columns and labels:
patients with T2D and RI = assay type: in vivo, human; conditions: for Model-adjusted change from baseline A1C, LS mean (SE): ANCOVA
Protocol: Therapies for type 2 diabetes mellitus (T2DM) with renal impairment (RI) are limited and may require dose adjustment. This 52-week randomized, double blind, active controlled, Phase III parallel group study examined efficacy/safety of QW Albi injections (30 mg uptitrated to 50 mg if needed) vs daily Sita in patients with T2D and RI (eGFR≧15 and <90 mL/min/1.73 m^2) and A1C 7-10% on lifestyle (11% of subjects) or metformin (Met), thiazoldinedone (TZD), sulfonylureas (SU), or any combination (89% of patients). […] Primary endpoint was A1C change at week 26 for Albi vs Sita (noninferiority with subsequent superiority analysis). Eligible subjects were men or non pregnant, nonlactating women, 18 years of age or older, with a historical diagnosis of T2DM who were experiencing inadequate glycemic control on their current regimen of diet and exercise or their antidiabetic therapy of metformin, TZD, SU, or any combination of these OAD medications.

patients with T2DM = assay: Phase 3 pooled analysis (Harmony 2, 4, 5, 8) of efficacy and safety by renal impairment severity, through primary endpoint (26 to 52 weeks)
Protocol: Patients with T2DM were enrolled in 3 similarly designed Phase 3 studies ^11-13 (Harmony 2, Harmony 4 and Harmony 5) and one Phase 3 study in patients with varying degrees of renal impairment (Harmony 8). ^10 These studies were randomized, double-blind (one open-label), active- (sitagliptin, pioglitazone, or glimepiride) or placebo-controlled, parallel-group, multicenter trials in which albiglutide (30 to 50 mg) was administered once weekly. In all 4 studies, men and nonpregnant women who were ≧18 years of age with a historical diagnosis of T2DM, and who were inadequately controlled (HbA1c≧7.0% and ≦10.0%) on diet and exercise and/or their current regimen of anti-diabetic agents (ie, metformin, thiazolidinedione, sulfonylurea, or any combination of these oral anti-diabetic medications) were eligible to enroll. Additional eligibility criteria included fasting C peptide of ≧0.8 ng/mL (≧0.26 nmol/L) and BMI between 20 and 45 kg/m^2. Harmony 8, the study in CKD patients, required estimated GFR≧15 and <90 mL/min/1.73 m^2, whereas the other 3 studies required estimated GFR>60 mL/min/1.73 m^2. […] Patients who met additional exclusion criteria, including requirements for levels of total bilirubin, alanine aminotransferase, aspartate aminotransferase, amylase, lipase, fasting triglycerides, and hemoglobin were also excluded.
Efficacy (HbA1c, fasting plasma glucose [FPG] and body weight) was assessed in each of the 4 studies by change from baseline to the primary endpoint (week 26 to week 52) using last observation carried forward for missing data. Rescue medications were allowed in subjects with persistent hyperglycemia (REF), however, efficacy data obtained after hyperglycemic rescue were not included and replaced with pre-rescue values for efficacy evaluation. Safety was assessed by monitoring the incidence of treatment emergent adverse events throughout the studies.
To evaluate efficacy and tolerability in different renal population, efficacy and tolerability data from patients with pop PK sample across 4 Phase 3 studies were extracted. Descriptive analysis were conducted up to primary endpoint (week 52 for Harmony 2, Harmony 4 and Harmony 5 and week 26 for study Harmony 8). Baseline demographics are summarized by renal impairment severity (normal, mild, moderate and severe). Efficacy parameters such as change from baseline of HbA1c, FPG, weight are also summarized by renal impairment severity. LOCF (Last Observation Carried Forward) approach is used in efficacy evaluation. Except for hypoglycemia, tolerability (AE, SAE and AE cause withdraw) were summarized by renal impairment severity for all data up to primary endpoint including post-rescue data. Hypoglycemia events (severe and documented symptomatic) were evaluated by renal impairment severity only include pre-rescue data.

[1] = Week 26, Moderate RI (eGFR 30-59)
[2] = Week 26, Severe RI (eGFR 15-29)
[3] = range over renal function groups of the pooled analysis

Albiglutide: recombinant fusion protein of 2 copies of modified human GLP-1 (fragment 7-36(A8G)) genetically fused in series to recombinant human serum albumin
Week 26 A1C, mean (patients with T2D and RI; Any RI (eGFR 15-89)): 7.27% | Week 26 A1C, mean (patients with T2D and RI; Mild RI (eGFR 60-89 mL/min/1.73 m2)): 7.23% | Week 26 A1C, mean (patients with T2D and RI; Moderate RI (eGFR 30-59)): 7.37% | A1C change at week 26, Albi vs Sita, superiority analysis (patients with T2D and RI; P=0.0003): superior | Week 26 A1C, mean (patients with T2D and RI; Severe RI (eGFR 15-29)): 6.97% | A1C<7% achieved, patients (patients with T2D and RI; Week 26): 42.6% | FPG change (patients with T2D and RI; Week 26): -25.6 mg/dL | weight change (patients with T2D and RI; Week 26): -0.8 kg | Model-adjusted change from baseline A1C, LS mean (SE) (patients with T2D and RI; Week 26, Any RI (eGFR 15-89)): −0.83% | Model-adjusted change from baseline A1C, LS mean (SE) (patients with T2D and RI; Week 26, Mild RI (eGFR 60-89)): −0.80% | Model-adjusted change from baseline A1C, LS mean (SE) (patients with T2D and RI; [1]): −0.83% | Model-adjusted change from baseline A1C, LS mean (SE) (patients with T2D and RI; [2]): −1.08% | Change from baseline A1C, mean (SD) (patients with T2D and RI; Week 26, Any RI (eGFR 15-89)): −0.82% | Difference of LS means from sitagliptin (95% CI), A1C (patients with T2D and RI; Week 26, Any RI (eGFR 15-89)): 0.32% | Difference of LS means from sitagliptin (95% CI), A1C (patients with T2D and RI; Week 26, Any RI (eGFR 15-89), listed as Albi): −0.32% | Change from baseline A1C, mean (SD) (patients with T2D and RI; Week 26, Mild RI (eGFR 60-89)): −0.72% | Difference of LS means from sitagliptin (95% CI), A1C (patients with T2D and RI; Week 26, Mild RI (eGFR 60-89)): −0.13% | Change from baseline A1C, mean (SD) (patients with T2D and RI; [1]): −0.88% | Difference of LS means from sitagliptin (95% CI), A1C (patients with T2D and RI; [1]): −0.53% | Change from baseline A1C, mean (SD) (patients with T2D and RI; [2]): −1.08% | Difference of LS means from sitagliptin (95% CI), A1C (patients with T2D and RI; [2]): −0.47% | Adverse Event rate: diarrhea (patients with T2D and RI; in vivo): 8.8% | Adverse Event rate: nausea (patients with T2D and RI; in vivo): 4.8% | Adverse Event rate: vomiting (patients with T2D and RI; in vivo): 1.6% | Anti-Albi antibody rate (patients with T2D and RI; in vivo): 2.8% | Anti-Albi antibody, neutralizing (patients with T2D and RI; in vivo): 0% | Hypoglycemia rate (patients with T2D and RI; in vivo): 20.5% | Hypoglycemia, severe (number) (patients with T2D and RI; in vivo): 0 | Injection site reaction rate (patients with T2D and RI; in vivo): 6.8% | On-therapy adverse event: Constipation (patients with T2D and RI; in vivo): 15 (6.0) n (%) | On-therapy adverse event: Diarrhea (patients with T2D and RI; in vivo): 22 (8.8) n (%) | On-therapy adverse event: Hypertension (patients with T2D and RI; in vivo): 10 (4.0) n (%) | On-therapy adverse event: Nasopharyngitis (patients with T2D and RI; in vivo): 13 (5.2) n (%) | On-therapy adverse event: Upper respiratory tract infection (patients with T2D and RI; in vivo): 9 (3.6) n (%) | On-therapy adverse event: Urinary tract infection (patients with T2D and RI; in vivo): 8 (3.2) n (%) | neutralizing anti-albiglutide antibodies (patients with T2DM; 4 trials of the pooled analysis): none of the antibodies were neutralizing | Pre-Rescue Hypoglycemia: Documented Symptomatic, With background SU (patients with T2DM; Mild): 70 (17) N (%) | Pre-Rescue Hypoglycemia: Documented Symptomatic, Without background SU (patients with T2DM; Mild): 3 (1.4) N (%) | Pre-Rescue Hypoglycemia: Severe, With background SU (patients with T2DM; Mild): 1 (0.2) N (%) | Pre-Rescue Hypoglycemia: Severe, Without background SU (patients with T2DM; Mild): 0 (0) N (%) | AEs leading to withdrawal (patients with T2DM; Mild (n = 633)): 37 (5.8) N (%) | Abdominal distention (patients with T2DM; Mild (n = 633)): 5 (0.8) N (%) | Anemia (patients with T2DM; Mild (n = 633)): 15 (2.4) N (%) | Any AE (patients with T2DM; Mild (n = 633)): 511 (81) N (%) | Constipation (patients with T2DM; Mild (n = 633)): 25 (3.9) N (%) | Diarrhea (patients with T2DM; Mild (n = 633)): 55 (8.7) N (%) | Edema peripheral (patients with T2DM; Mild (n = 633)): 21 (3.3) N (%) | Gastrointestinal disorders system organ class: Any event (patients with T2DM; Mild (n = 633)): 205 (32) N (%) | Injection site reaction (patients with T2DM; Mild (n = 633)): 51 (8.1) N (%) | Nasopharyngitis (patients with T2DM; Mild (n = 633)): 51 (8.1) N (%) | Nausea (patients with T2DM; Mild (n = 633)): 60 (9.5) N (%) | Pre-Rescue Hypoglycemia: Documented Symptomatic (overall) (patients with T2DM; Mild (n = 633)): 73 (12) N (%) | Pre-Rescue Hypoglycemia: Severe (overall) (patients with T2DM; Mild (n = 633)): 1 (0.2) N (%) | Renal Impairment (adverse event) (patients with T2DM; Mild (n = 633)): 0 (0) N (%) | Serious AE (patients with T2DM; Mild (n = 633)): 52 (8.2) N (%) | Pre-Rescue Hypoglycemia: Documented Symptomatic, With background SU (patients with T2DM; Moderate): 28 (20) N (%) | Pre-Rescue Hypoglycemia: Documented Symptomatic, Without background SU (patients with T2DM; Moderate): 0 (0) N (%) | Pre-Rescue Hypoglycemia: Severe, With background SU (patients with T2DM; Moderate): 0 (0) N (%) | Pre-Rescue Hypoglycemia: Severe, Without background SU (patients with T2DM; Moderate): 0 (0) N (%) | AEs leading to withdrawal (patients with T2DM; Moderate (n = 175)): 11 (6.3) N (%) | Abdominal distention (patients with T2DM; Moderate (n = 175)): 2 (1.1) N (%) | Anemia (patients with T2DM; Moderate (n = 175)): 5 (2.9) N (%) | Any AE (patients with T2DM; Moderate (n = 175)): 139 (79) N (%) | Constipation (patients with T2DM; Moderate (n = 175)): 11 (6.3) N (%) | Diarrhea (patients with T2DM; Moderate (n = 175)): 23 (13) N (%) | Edema peripheral (patients with T2DM; Moderate (n = 175)): 4 (2.3) N (%) | Gastrointestinal disorders system organ class: Any event (patients with T2DM; Moderate (n = 175)): 58 (33) N (%) | Injection site reaction (patients with T2DM; Moderate (n = 175)): 12 (6.9) N (%) | Nasopharyngitis (patients with T2DM; Moderate (n = 175)): 14 (8.0) N (%) | Nausea (patients with T2DM; Moderate (n = 175)): 13 (7.4) N (%) | Pre-Rescue Hypoglycemia: Documented Symptomatic (overall) (patients with T2DM; Moderate (n = 175)): 28 (16) N (%) | Pre-Rescue Hypoglycemia: Severe (overall) (patients with T2DM; Moderate (n = 175)): 0 (0) N (%) | Renal Impairment (adverse event) (patients with T2DM; Moderate (n = 175)): 3 (1.7) N (%) | Serious AE (patients with T2DM; Moderate (n = 175)): 17 (9.7) N (%) | Pre-Rescue Hypoglycemia: Documented Symptomatic, With background SU (patients with T2DM; Normal): 44 (21) N (%) | Pre-Rescue Hypoglycemia: Documented Symptomatic, Without background SU (patients with T2DM; Normal): 0 (0) N (%) | Pre-Rescue Hypoglycemia: Severe, With background SU (patients with T2DM; Normal): 1 (0.3) N (%) | Pre-Rescue Hypoglycemia: Severe, Without background SU (patients with T2DM; Normal): 0 (0) N (%) | AEs leading to withdrawal (patients with T2DM; Normal (n = 286)): 11 (3.8) N (%) | Abdominal distention (patients with T2DM; Normal (n = 286)): 2 (0.7) N (%) | Anemia (patients with T2DM; Normal (n = 286)): 6 (2.1) N (%) | Any AE (patients with T2DM; Normal (n = 286)): 232 (81) N (%) | Constipation (patients with T2DM; Normal (n = 286)): 8 (2.8) N (%) | Diarrhea (patients with T2DM; Normal (n = 286)): 20 (7.0) N (%) | Edema peripheral (patients with T2DM; Normal (n = 286)): 5 (1.7) N (%) | Gastrointestinal disorders system organ class: Any event (patients with T2DM; Normal (n = 286)): 76 (27) N (%) | Injection site reaction (patients with T2DM; Normal (n = 286)): 32 (11) N (%) | Nasopharyngitis (patients with T2DM; Normal (n = 286)): 19 (6.6) N (%) | Nausea (patients with T2DM; Normal (n = 286)): 23 (8.0) N (%) | Pre-Rescue Hypoglycemia: Documented Symptomatic (overall) (patients with T2DM; Normal (n = 286)): 44 (15) N (%) | Pre-Rescue Hypoglycemia: Severe (overall) (patients with T2DM; Normal (n = 286)): 1 (0.3) N (%) | Renal Impairment (adverse event) (patients with T2DM; Normal (n = 286)): 0 (0) N (%) | Serious AE (patients with T2DM; Normal (n = 286)): 17 (5.9) N (%) | Pre-Rescue Hypoglycemia: Documented Symptomatic, With background SU (patients with T2DM; Severe): 4 (29) N (%) | Pre-Rescue Hypoglycemia: Documented Symptomatic, Without background SU (patients with T2DM; Severe): 0 (0) N (%) | Pre-Rescue Hypoglycemia: Severe, With background SU (patients with T2DM; Severe): 0 (0) N (%) | Pre-Rescue Hypoglycemia: Severe, Without background SU (patients with T2DM; Severe): 0 (0) N (%) | AEs leading to withdrawal (patients with T2DM; Severe (n = 19)): 2 (11) N (%) | Abdominal distention (patients with T2DM; Severe (n = 19)): 2 (11) N (%) | Anemia (patients with T2DM; Severe (n = 19)): 4 (21) N (%) | Any AE (patients with T2DM; Severe (n = 19)): 12 (63) N (%) | Constipation (patients with T2DM; Severe (n = 19)): 2 (11) N (%) | Diarrhea (patients with T2DM; Severe (n = 19)): 4 (21) N (%) | Edema peripheral (patients with T2DM; Severe (n = 19)): 3 (16) N (%) | Gastrointestinal disorders system organ class: Any event (patients with T2DM; Severe (n = 19)): 8 (42) N (%) | Injection site reaction (patients with T2DM; Severe (n = 19)): 1 (5.3) N (%) | Nasopharyngitis (patients with T2DM; Severe (n = 19)): 1 (5.3) N (%) | Nausea (patients with T2DM; Severe (n = 19)): 3 (16) N (%) | Pre-Rescue Hypoglycemia: Documented Symptomatic (overall) (patients with T2DM; Severe (n = 19)): 4 (21) N (%) | Pre-Rescue Hypoglycemia: Severe (overall) (patients with T2DM; Severe (n = 19)): 0 (0) N (%) | Renal Impairment (adverse event) (patients with T2DM; Severe (n = 19)): 4 (21) N (%) | Serious AE (patients with T2DM; Severe (n = 19)): 0 (0) N (%) | treatment effect as measured by HbA1c and FPG vs GFR (patients with T2DM; change from baseline, scatter plot): trend towards greater reductions as GFR decreased | thyroid cancer (patients with T2DM; in vivo): No patient developed thyroid cancer | nausea, percentage (patients with T2DM; mild group): 9.5% | vomiting, percentage (patients with T2DM; mild group): 3.2% | nausea, percentage (patients with T2DM; moderate group): 7.4% | vomiting, percentage (patients with T2DM; moderate group): 2.9% | nausea, percentage (patients with T2DM; normal group): 8.0% | vomiting, percentage (patients with T2DM; normal group): 2.1% | subjects with severe hypoglycemic events (patients with T2DM; normal, mild renal impairment, with background SU use): 2 | patients with probable pancreatitis at least possibly related to study drug (patients with T2DM; one with mild and one with moderate renal impairment): Two | nausea percentage, range (patients with T2DM; [3]): 7-16% | vomiting percentage, range (patients with T2DM; [3]): 2-5% | incidence of anti-albiglutide antibodies (patients with T2DM; range over the 4 trials of the pooled analysis): 2.8% to 8.1 | nausea, percentage (patients with T2DM; severe group): 16% | vomiting, percentage (patients with T2DM; severe group): 5.3%
